Measured values published in publication PMC3784471 (PLoS Pathogens, 2013).
Ends that are not written are not given here.

Molecular target: T1, Hendra virus nucleoprotein C-terminal domain N_(TAIL) (residues 401-532) (Hendra virus, UniProt O89339 401-532)
T1 sequence: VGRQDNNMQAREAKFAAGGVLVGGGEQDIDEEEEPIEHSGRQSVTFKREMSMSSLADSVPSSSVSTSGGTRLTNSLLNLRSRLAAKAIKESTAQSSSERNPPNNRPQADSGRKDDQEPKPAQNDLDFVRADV
Test: NMR titration; […]) ([…]); 298 K; […], pH 6.0
Settings: both partners purified

B1: Hendra virus phosphoprotein X domain (XD, residues 654-707), 13C,15N labeled, without hexahistidine tag (domain or fragment)
chain: ADDASKDVVRTMIRTHIKDRELRSELMDYLNRAETDEEVQEVANTVNDIIDGNI
modifications: also: 13C,15N labeled
B1: binds.
